Data as given in patent publication US7101851 (dated 2006).
Bridges are numbered along the chain shown (N, C = ends). Where no end group is shown, it is not given here. [ ]: non-standard residue; d: D form. Pip = O=C(O)[C@@H]1CCCCN1; dPip = O=C(O)[C@H]1CCCCN1; hCys = N[C@@H](CCS)C(=O)O; NMeA = CN[C@@H](C)C(=O)O

B1: IGE167 (peptide)
peptide: VQCPHFCYFGAELCPDVCYV-NH2
modifications: disulfide 7-14, 3-18; N-terminus assumed
SMILES: CC(C)C[C@@H]1NC(=O)[C@H](CCC(=O)O)NC(=O)[C@H](C)NC(=O)CNC(=O)[C@H](Cc2ccccc2)NC(=O)[C@H](Cc2ccc(O)cc2)NC(=O)[C@@H]2CSSC[C@H](NC1=O)C(=O)N1CCC[C@H]1C(=O)N[C@@H](CC(=O)O)C(=O)N[C@@H](C(C)C)C(=O)N[C@H](C(=O)N[C@@H](Cc1ccc(O)cc1)C(=O)N[C@H](C(N)=O)C(C)C)CSSC[C@H](NC(=O)[C@H](CCC(N)=O)NC(=O)[C@@H](N)C(C)C)C(=O)N1CCC[C@H]1C(=O)N[C@@H](Cc1c[nH]cn1)C(=O)N[C@@H](Cc1ccccc1)C(=O)N2
B2: IGE158 (peptide)
peptide: VQCPHFCYFGGAELC[NMeA]DVCYV-NH2
modifications: disulfide 7-15, 3-19; N-terminus assumed
SMILES: CC(C)C[C@@H]1NC(=O)[C@H](CCC(=O)O)NC(=O)[C@H](C)NC(=O)CNC(=O)CNC(=O)[C@H](Cc2ccccc2)NC(=O)[C@H](Cc2ccc(O)cc2)NC(=O)[C@@H]2CSSC[C@H](NC1=O)C(=O)N(C)[C@@H](C)C(=O)N[C@@H](CC(=O)O)C(=O)N[C@@H](C(C)C)C(=O)N[C@H](C(=O)N[C@@H](Cc1ccc(O)cc1)C(=O)N[C@H](C(N)=O)C(C)C)CSSC[C@H](NC(=O)[C@H](CCC(N)=O)NC(=O)[C@@H](N)C(C)C)C(=O)N1CCC[C@H]1C(=O)N[C@@H](Cc1c[nH]cn1)C(=O)N[C@@H](Cc1ccccc1)C(=O)N2
B3: IGE156 (peptide)
peptide: VQCPHFCYELDYELCPDVCYVGR
modifications: not fully specified (bridges); cysteine pairing not given here
notes: produced as Z-domain fusion in E. coli and released with trypsin
B4: IGE146 (peptide)
peptide: VQCPHFCYVGEALCPDVCYV-NH2
modifications: disulfide 7-14, 3-18; N-terminus assumed
SMILES: CC(C)C[C@@H]1NC(=O)[C@H](C)NC(=O)[C@H](CCC(=O)O)NC(=O)CNC(=O)[C@H](C(C)C)NC(=O)[C@H](Cc2ccc(O)cc2)NC(=O)[C@@H]2CSSC[C@H](NC1=O)C(=O)N1CCC[C@H]1C(=O)N[C@@H](CC(=O)O)C(=O)N[C@@H](C(C)C)C(=O)N[C@H](C(=O)N[C@@H](Cc1ccc(O)cc1)C(=O)N[C@H](C(N)=O)C(C)C)CSSC[C@H](NC(=O)[C@H](CCC(N)=O)NC(=O)[C@@H](N)C(C)C)C(=O)N1CCC[C@H]1C(=O)N[C@@H](Cc1c[nH]cn1)C(=O)N[C@@H](Cc1ccccc1)C(=O)N2
B5: IGE159 (peptide)
peptide: VQC[NMeA]HFCYFGGAELCPDVCYV-NH2
modifications: disulfide 7-15, 3-19; N-terminus assumed
SMILES: CC(C)C[C@@H]1NC(=O)[C@H](CCC(=O)O)NC(=O)[C@H](C)NC(=O)CNC(=O)CNC(=O)[C@H](Cc2ccccc2)NC(=O)[C@H](Cc2ccc(O)cc2)NC(=O)[C@@H]2CSSC[C@H](NC1=O)C(=O)N1CCC[C@H]1C(=O)N[C@@H](CC(=O)O)C(=O)N[C@@H](C(C)C)C(=O)N[C@H](C(=O)N[C@@H](Cc1ccc(O)cc1)C(=O)N[C@H](C(N)=O)C(C)C)CSSC[C@H](NC(=O)[C@H](CCC(N)=O)NC(=O)[C@@H](N)C(C)C)C(=O)N(C)[C@@H](C)C(=O)N[C@@H](Cc1c[nH]cn1)C(=O)N[C@@H](Cc1ccccc1)C(=O)N2
B6: IGE169 (peptide)
peptide: VQCPHFCYFGAELCPAVCYV-NH2
modifications: disulfide 7-14, 3-18; N-terminus assumed
SMILES: CC(C)C[C@@H]1NC(=O)[C@H](CCC(=O)O)NC(=O)[C@H](C)NC(=O)CNC(=O)[C@H](Cc2ccccc2)NC(=O)[C@H](Cc2ccc(O)cc2)NC(=O)[C@@H]2CSSC[C@H](NC1=O)C(=O)N1CCC[C@H]1C(=O)N[C@@H](C)C(=O)N[C@@H](C(C)C)C(=O)N[C@H](C(=O)N[C@@H](Cc1ccc(O)cc1)C(=O)N[C@H](C(N)=O)C(C)C)CSSC[C@H](NC(=O)[C@H](CCC(N)=O)NC(=O)[C@@H](N)C(C)C)C(=O)N1CCC[C@H]1C(=O)N[C@@H](Cc1c[nH]cn1)C(=O)N[C@@H](Cc1ccccc1)C(=O)N2

Target: T1, alpha subunit of the human FcεRI receptor (IgE high affinity receptor), expressed on Chinese hamster ovary … (human, UniProt P12319 26-257)
T1 construct: whole, on cells; also called CHO FcεRI+ cells; FcεRIα
T1 sequence (looked up): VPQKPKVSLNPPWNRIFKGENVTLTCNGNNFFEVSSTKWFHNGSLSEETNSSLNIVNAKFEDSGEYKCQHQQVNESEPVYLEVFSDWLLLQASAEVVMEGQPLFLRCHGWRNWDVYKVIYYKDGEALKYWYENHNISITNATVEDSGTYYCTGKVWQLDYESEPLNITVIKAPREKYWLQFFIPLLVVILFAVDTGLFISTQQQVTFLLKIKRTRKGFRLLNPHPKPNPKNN
Experiment: inhibition of 125I-IgE binding to CHO cells expressing human FcεRI alpha; competitor IgE
Procedure: To determine the ability of peptides to inhibit IgE binding to FcεRI, a cell-based binding assay was used with radiolabeled IgE. Chinese hamster ovary cells expressing the alpha subunit of the human FcεRI receptor were cultured overnight in Falcon 96 well microtiter plates at a concentration of 5 ×10^4 cells per well. The following day the cells were rinsed three times with PBS and then once with F12/DMEM. Peptide stocks were reconstituted in 100 mM Hepes buffered water, pH 7.2, at a concentration of 5 mg/mL. Working concentrations of the peptide were diluted in assay buffer (see below). 75 uL of a desired concentration of peptide was added to the top row of a separate 96 well microtiter plate and serially diluted 1:3 in 50 uL of the assay buffer (F12/DMEM, 1% BSA, 0.05% NaN_3 and 0.025 mM Hepes pH 7.2). Starting concentrations ranged from 50–500 uM. Next, 50 uL of the diluted peptide was transferred to the 96 microtiter well plate containing a monolayer of CHO FcεRI+ cells. […] Cells were […]

Compared with VQC[dPip]HFCYFGGAELCPDVCYV-NH2 (disulfide 7-15, 3-19) [IGE162-1], B1 is 34-fold lower in IC50: 4090 nM for the first, 120 nM for the second. The second is the more potent here.

Compared with VQCPHFCYFGGAELC[Pip]DVCYV-NH2 (disulfide 7-15, 3-19) [IGE161-2], VQCPHFCYFGGAELC[dPip]DVCYV-NH2 (disulfide 7-15, 3-19) [IGE161-1] is 60-fold higher in IC50: 680 nM for the first, 41000 nM for the second. The first is the more potent here.

Compared with VQCPHFCYELDYELCPDVCY-NH2 (not fully specified (bridges); cysteine pairing not given here) [IGE153], B2 is 22-fold higher in IC50: 49 nM for the first, 1080 nM for the second. The first is the more potent here.

First: QCPHFCYELDYELCPDVCY-NH2 (not fully specified (bridges); cysteine pairing not given here) [IGE157]
Second: VQC[Pip]HFCYFGGAELCPDVCYV-NH2 (disulfide 7-15, 3-19) [IGE162-2]
The IC50 of the first is 4-fold lower: 107 nM for the first, 430 nM for the second. The first is the more potent here.

Compared with VQCPHFCYFGGAEL[hCys]PDVCYV-NH2 (disulfide (positions not given here)) [IGE164], VQCPHFCYFGGAELCPDV[hCys]YV-NH2 (disulfide (positions not given here)) [IGE165] is 35-fold lower in IC50: 40700 nM for the first, 1170 nM for the second. The second is the more potent here.

First: VQCPHF[hCys]YFGGAELCPDVCYV-NH2 (disulfide 7-15, 3-19) [IGE166]
Second: VQCPHFCYFGGAELCPDVCYV (not fully specified (bridges); cysteine pairing not given here) [IGE151]
The IC50 of the first is 500-fold higher: 65000 nM for the first, 130 nM for the second. The second is the more potent here.

First: B3
Second: B4
The IC50 of the first is 30-fold lower: 30 nM for the first, 890 nM for the second.

First: CPHFCYELDYELCPDVCY-NH2 (not fully specified (bridges); cysteine pairing not given here) [IGE155]
Second: B5
The IC50 of the first is 5.5-fold lower: 69 nM for the first, 380 nM for the second.

Going from VQCPHFCYFGAELCPDVCYV (disulfide 7-14, 3-18) [IGE152] to B6, the IC50 rises from 52 nM to 128 nM (2.5-fold).
